Test results as given in US9487561B2, “Biologically active complex and its preparation” (HAMLET PHARMA AB, priority 2010, dated 2016).

What was measured:
[1] = test system: lung carcinoma, kidney carcinoma and lymphoma cells; test: HAMLET-induced change in cell morphology (light microscopy, real-time imaging); assay type: cell-based; conditions: light microscopy
Description: (§1) Cells were detached from cell culture flasks with versen (0.2 g EDTA in 200 ml H2O and 800 ml PBS), washed with PBS and resuspended in serum-free RPMI-1640. HAMLET dissolved in PBS was incubated with cells (0.5×10^6/ml for A549, A498 and HeLa cells; 1×10^6/ml for Jurkat) at 37° C. FCS was added after 1 hour. Cell death was quantified by trypan blue exclusion (Chroma Gesellschaft Schmid & Co) or by measuring ATP levels (ATPlite Kit, PerkinElmer, Infinite 200, Tecan). Light images were captured using the HOLOMONITOR™ M2 digital holographic microscope (Phase Holographic Imaging AB, Lund, Sweden).
(§2) For live cell imaging, cells were pre-treated with SB202190 for 30 minutes, nuclei were stained with Hoechst 33342 (Invitrogen) and Alexa-Fluor 568-labeled HAMLET (10% labeled HAMLET, Molecular Probes) was added in serum-free medium. FCS was added after 1 hour. Fluorescence was detected with pinhole settings corresponding to 1 airy unit. The cells were kept at 37° C., 5% CO2 and examined unfixed by LSM510 DUO confocal microscopy (Carl Zeiss).
To examine if the HAMLET-induced change in carcinoma cell morphology was modified by the channel inhibitors, lung carcinoma, kidney carcinoma and lymphoma cells were exposed to HAMLET in the presence or absence of ion channel inhibitors and examined by light microscopy (FIG. 2C).
To determine if p38 signaling was involved in cell death, we inhibited p38α and p38β in lung and kidney carcinoma and Jurkat lymphoma cells with two small-molecule p38 inhibitors: SB202190, a highly specific pyridinyl-imidazole inhibitor; and BIRB796, a diaryl urea compound, which bears little structural similarity to SB202190 (Fabian et al., 2005, Nature Biotechnology 23: 329-336), ([…] and FIG. 12B). […] The effect of p38 inhibition on cell death was also observed by real-time confocal imaging of lung carcinoma cells exposed to fluorescently labeled HAMLET.

[2] = test system: tumor cells; test: internalization of Alexa-fluor labeled HAMLET (confocal microscopy); assay type: cell-based; conditions: HAMLET 35 μM, 1 hour
Description: FIG. 2. Ion channel inhibitors rescue carcinoma cells from death and block HAMLET uptake and morphologic change. (A) Viability of lung carcinoma cells after exposure to HAMLET (21 or 35 μM, 3 h), quantified by trypan blue exclusion. […] (B) BaCl2 and amiloride prevented carcinoma cells from changing their morphology in response to HAMLET (Mean of two images in one experiment+SEMs). (C) Internalization of Alexa-fluor labeled HAMLET by tumor cells (35 μM, 1 hour), visualized by confocal microscopy. […] GAPDH was the loading control. (E) The transcriptomic response to HAMLET requires functional ion channels.
as §2

[3] = test system: lymphoma cells (Jurkat cells); test: cell death assay with inhibitors; assay type: cell-based; conditions: HAMLET 21-35 μM, three hours
Description: GAPDH was used as a loading control.
as §1
(§3) For studies with inhibitors, cells were pretreated for 30 minutes. Inhibitors used were Gadolinium chloride (GdCl3, 100 μM), Barium chloride (BaCl2, 1 mM), Ruthenium red (30 μM), tetrandrine (10 μM) and amiloride (1 mM), all from Sigma Aldrich. For p38 inhibition, SB202190 (20 μM, Sigma Aldrich) or BIRB796 (10 μM, Axon Medchem) dissolved in DMSO was used. The wells were washed twice with PBS and new medium with inhibitor was added. For RNA interference, FlexiTube siRNA Premixes against MAPK11 (SI00606053), MAPK14 (SI00300769) and All Star Negative Control siRNA (SI03650318) from Qiagen was used. A549 forward was transfected using 25 nM final siRNA concentration in 24-well plate. After 48 hours, knockdown was examined by Western blot (anti-p38, 1:1000, Cell Signaling) and RT-PCR (MAPK14, QT00079345, QIAGEN).
To examine if functional ion channels are important for the tumoricidal activity of HAMLET, A549 lung carcinoma cells in suspension were pretreated with the channel inhibitors for 30 minutes and exposed to increasing concentrations of HAMLET for three hours.

[4] = test system: (HeLa cells); test: cell death assay with ion channel inhibitors; assay type: cell-based; conditions: HAMLET 21-35 μM, three hours
Description: as §1
as §3, with “After 48 hours, knockdown was examined by Western blot (anti-p38, 1:1000, Cell Signaling) and RT-PCR (MAPK14, QT00079345, QIAGEN).” left out

[5] = test system: glioblastoma xenograft; conditions: rat, in vivo; cited from earlier work
[6] = test system: skin papillomas; conditions: topical administration, placebo controlled; cited from earlier work
[7] = test system: Human renal tubular epithelial cells (HRTEC); test: Ca^2+ and K^+ levels in healthy, differentiated cells in primary culture; assay type: cell-based; conditions: HAMLET 35 μM
Description: Human renal tubular epithelial cells (HRTEC) were preincubated with Fluo-4 as described, exposed to HAMLET (35 μM) and examined by real time confocal microscopy.
To further characterize ion channel activation by HAMLET, carcinoma cells were pretreated with defined channel blockers. Amiloride is a sodium channel inhibitor with effects on mechanosensitive channels, barium chloride (BaCl2) is a general K^+ channel inhibitor, gadolinium chloride (GdCl3) inhibits mechanosensitive channels, Ruthenium red is a general Ca^2+ inhibitor and tetrandrine inhibits large conductance, Ca^2+ activated K^+ channels. The carcinoma cells were preincubated with Fluo-4 as described above, pretreated with each of the channel inhibitors for 30 minutes, exposed to HAMLET (35 μM) and examined by real time confocal imaging. Furthermore, cells treated with EGTA were compared to cells with intact extracellular Ca^2+ levels, to distinguish the early peak from the subsequent influx of Ca^2+ (FIG. 1B, Table in FIG. 8).

[8] = test system: human lung carcinoma (A549) cells; test: extended microarray analysis (Illumina HumanHT-12); assay type: cell-based
Description: (§4) For the extended microarray analysis, gene expression was assessed by whole genome Illumina microarrays (HumanHT-12 Expression BeadChip). Data was normalized using cross-correlation (Chua et al., 2006 Nucleic Acids Research 34: e38). Genes with a log 2 fold change ≧1.2 in tumor cells and ≧2.0 in healthy, differentiated cells at any time point were regarded as differentially expressed (Benjamini-Hochberg adjusted p-value <0.05).
To identify the pathways that execute tumor cell death downstream of the ion channels, we further examined the global transcriptional responses to HAMLET in human lung carcinoma (A549) and kidney carcinoma (A498) cells over an extended period of 15 min to 24 hours. The p38 MAPK signaling pathway was identified as a top-scoring canonical pathway in A549 cells (FIG. 4A).

[9] = test system: tumor cells; test: Tumoricidal Activity of Oleate-HAMLET (cell death method of Example 1); assay type: cell-based; conditions: 0.5 mg/ml
[10] = test system: healthy, differentiated pediatric kidney cells; test: extended microarray analysis (Illumina HumanHT-12); assay type: cell-based, human
Description: as §4
To examine the molecular basis of the difference in HAMLET susceptibility between carcinoma cells and healthy, differentiated cells, transcriptional profiles were compared. […] These cytokines were not secreted by the carcinoma cells.

Row | Molecule | effect of ion channel inhibitor on HAMLET-induced change in cell morphology [1] | effect of inhibitor on internalization of HAMLET [2] | rescue from HAMLET-induced cell death [3] | rescue from HAMLET-induced cell death [4] | cell death in healthy brain tissue [5] | tumor progression and survival [5] | effect on skin papillomas [6] | Ca^2+ response in HRTECs [7] | duration of Ca^2+ response in HRTECs [7] | DUSP1 upregulation [8] | DUSP10 upregulation [8] | number of genes with minimum log 2-fold change of 1.2 compared to PBS-treated control cells ([8]; adjusted p-value <0.05) | Trypan blue ([9]; Control 88) | ATP Activity ([9]; Control 100) | number of genes responding to HAMLET [10]
1 | [Ba+2].[Cl-].[Cl-] [BaCl2, barium chloride] | maintained their normal morphology | inhibited internalization | rescue effect | rescue effect |  |  |  |  |  |  |  |  |  |  | 
2 | NC(N)=NC(=O)c1nc(Cl)c(N)nc1N [amiloride, 3,5-diamino-6-chloro-N-(diaminomethylene)pyrazine-2-carboxamide] | maintained their normal morphology | inhibited internalization | rescue effect | rescue effect |  |  |  |  |  |  |  |  |  |  | 
3 | HAMLET (protein, UniProt P00709 20-142, looked up, oleic acid complex) Alpha-lactalbumin: KQFTKCELSQLLKDIDGYGGIALPELICTMFHTSGYDTQAIVENNESTEYGLFQISNKLWCKSSQVPQSRNICDISCDKFLDDDITDDIMCAKKILDIKGIDYWLAHKALCTEKLEQWLCEKL |  |  |  |  | without evidence of cell death in healthy brain tissue | delayed tumor progression and led to increased survival | removed or reduced the size of skin papillomas | weak and transient Ca^2+ response | about 90 seconds | 1.34 log 2-fold change | 1.98 log 2-fold change | Three hundred sixty-seven | 8 | 21% | 2064 genes
